We go through three molecules from patent publication US20190083615A1 (Merck Sharp & Dohme, published 2019).

A word on the EC50: it is the concentration that produces a half-maximal response. In general, IC50 refers to the midpoint of a concentration-inhibition curve. Usually Kd stands for the equilibrium constant for the complex coming apart. Low values mean tighter binding, high ones weaker binding.

Test [1] concerns the target T1, human LAG3 (Lymphocyte Activation Gene-3) expressed on cells (human, UniProt P18627 23-525).
T1 construct: also called hLAG3; CD223
T1 sequence: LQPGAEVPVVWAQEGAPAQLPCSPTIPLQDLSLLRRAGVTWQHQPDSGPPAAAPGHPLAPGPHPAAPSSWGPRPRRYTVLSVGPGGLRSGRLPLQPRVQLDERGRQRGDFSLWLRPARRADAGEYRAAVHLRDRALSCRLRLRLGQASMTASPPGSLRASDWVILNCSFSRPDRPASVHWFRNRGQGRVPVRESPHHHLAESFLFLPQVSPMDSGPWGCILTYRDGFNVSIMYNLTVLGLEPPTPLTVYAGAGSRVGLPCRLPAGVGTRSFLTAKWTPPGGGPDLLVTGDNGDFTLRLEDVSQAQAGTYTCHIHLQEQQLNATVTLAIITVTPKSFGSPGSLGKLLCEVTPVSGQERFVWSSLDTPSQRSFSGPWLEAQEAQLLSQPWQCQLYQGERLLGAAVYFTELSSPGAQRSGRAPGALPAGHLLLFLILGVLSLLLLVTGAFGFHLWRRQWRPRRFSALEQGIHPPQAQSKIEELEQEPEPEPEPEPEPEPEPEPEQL
In words: flow cytometry, PHA-activated human CD8+ T cells (3 donors). On the procedure:
(§1) Binding of LAG-3 mAb clones to primary T-cells was assessed using human and cynomolgous monkey (cyno) peripheral blood mononuclear cells (PBMC). Human blood was obtained from the local donors; cyno blood was obtained from Bioreclamation. PBMC were isolated from the whole blood using Ficoll-Paque Plus (GE Healthcare, Cat# 17-1440-03) density gradient centrifugation at 524×g for 40 minutes. PBMC were collected from the medium:plasma interface and washed 2 times with phosphate buffered saline (PBS). The residual red blood cells were lysed using ammonium-chloride-potassium red blood cell lysing solution (ACK, GIBCO, cat# A10492-010). Cynomolgus monkey or human PBMC (3×10⁶/ml) were stimulated with 4 μg/ml PHA (Sigma, L2769) for 48 h and 20 h, respectively. For flow cytometric analysis, 1×10⁶ PHA-activated PBMCs were used per staining in 50 μl FACS staining buffer (BD, cat# 554657). LAG-3 mAb clones or correspondent isotype controls were incubated with human or cyno PBMS followed by detection using goat anti-mouse IgG-PE (BD 550589). […] Sample acquisition was performed on an LSR II flow cytometer and the data were analyzed using FlowJo software version 10.0.6 (Tree Star, Inc.).
(§2) The data represent 3 human and 3 cynomolgus donors after stimulation with 4 ug/ml of PHA for 40 hours prior to staining.
In general terms: In flow cytometry, cells or beads pass a laser one at a time.

In test [2] the target is T1, human LAG3 (Lymphocyte Activation …). In words: flow cytometry, PHA-activated human CD4+ T cells (3 donors). On the procedure:
as §1, §2

Test [3] deals with T2, human LAG3-huFc recombinant protein (human, UniProt P18627 23-450, limits assumed, biotinylated in the runs with humanized and chimeric antibodies (Example 11)).
T2 construct: also called human LAG3-Fc; huLAG3-huFc; not shown: human Fc
T2 sequence: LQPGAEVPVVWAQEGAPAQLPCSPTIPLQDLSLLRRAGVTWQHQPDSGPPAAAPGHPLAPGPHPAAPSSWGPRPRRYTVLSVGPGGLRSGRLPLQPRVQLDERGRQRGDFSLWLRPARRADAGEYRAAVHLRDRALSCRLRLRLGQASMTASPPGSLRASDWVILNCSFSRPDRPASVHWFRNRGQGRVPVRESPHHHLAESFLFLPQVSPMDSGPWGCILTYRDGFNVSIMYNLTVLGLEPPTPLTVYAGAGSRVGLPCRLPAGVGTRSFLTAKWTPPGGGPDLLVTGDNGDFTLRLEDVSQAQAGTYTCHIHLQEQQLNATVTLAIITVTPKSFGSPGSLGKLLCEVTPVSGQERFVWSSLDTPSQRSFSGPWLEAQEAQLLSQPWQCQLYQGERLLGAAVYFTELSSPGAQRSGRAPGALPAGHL
In words: flow cytometry, blockade of biotinylated human LAG3-huFc binding to MHC class II on Daudi cells, streptavidin-PE. On the procedure: Mouse anti-human LAG3 and humanized anti-LAG3 clones were tested for their ability to block hLAG3 interaction with human MHC Class II. Daudi cells (ATCC #CCL-213) were used as a cell line positive for human MHC class II expression. Daudi cells were blocked with 10 ug/ml of goat IgG in HBSS and 2% BCS on ice for 30 minutes and 0.5×10⁶ cells/sample were aliquoted into a 96-well V-bottom plate and blocking buffer removed. […] Cells were pelleted by centrifugation at 1200 rpm and washed twice with HBSS/2% BCS. […] Cells were washed twice as described above, resuspended in HBSS/2% BCS and read on the FACSCalibur.

A further test has as its target T3, human CD4 (human, UniProt P01730 26-458).
T3 construct: whole, on cells; Tested on transfected L-cells by FACS and also by BiaCore
In words: BiaCore (SPR). (SPR reads the build-up and loss of mass on a sensor chip optically.)

The target of test [4] is T1, human LAG3 (Lymphocyte Activation …). Nature of the test: cell based KinExA, BaF/3 cells transfected with human LAG3 (n=3). On the procedure:
The affinities of the LAG3 antibodies for LAG3 were determined using a cell based Kinetic Exclusion Assay (KinExA). Cell based KinExA can be used to measure the affinity of a molecule for a binding partner on a cell surface (Rathanaswami et al. Analylitical Biochemistry 373(1): 52-60 (2008); Xie et al. J. Immunol. Methods 304 (1-2): 1-14 (2005)). In this case, BaF/3 cells were stably transfected with human and cynomolgus monkey LAG3 proteins. Transfected cells or the parental BaF/3 control cell line were grown to a density of 1.7×10⁶ to 3.2×10⁶ cells per ml at 37° C., 120 RPM, 5% CO₂, in 1X RPMI 1640 media with 10% FBS, 10 ng/ml IL-3, 5 μg/ml puromycin. Cells were concentrated, mixed with 15 pM or 150 pM antibody in cell culture media and incubated 24 to 48 hours at room temperature while rotating at 20 to 30 RPM. Cells were present at a top concentration of 2×10⁷ cells per ml (parental BaF/3 or cynomolgus LAG3 transfectants) or 1×10⁷ cells per ml (human LAG3 transfectants) and diluted in a 2-fold, 18 member series. The cells were pelleted and free antibody in the supernatant was measured using a KinExA 3200 instrument (Sapidyne, Id., USA). […] Antibody on the beads was labeled with 1.5 μg/ml Alexa Fluor® 647 conjugated goat anti-human (Fab′)₂ (Jackson ImmunoResearch Laboratories), washed and the fluorescent signal was read all using the KinExA™ 3200. […]

For test [5] the target is unchanged. Nature of the test: cell based KinExA, BaF/3 cells transfected with human LAG3 (n=2). As to the method:
The affinities of the LAG3 antibodies for LAG3 were determined using a cell based Kinetic Exclusion Assay (KinExA). Cell based KinExA can be used to measure the affinity of a molecule for a binding partner on a cell surface (Rathanaswami et al. Analylitical Biochemistry 373(1): 52-60 (2008); Xie et al. J. Immunol. Methods 304 (1-2): 1-14 (2005)). In this case, BaF/3 cells were stably transfected with human and cynomolgus monkey LAG3 proteins. Transfected cells or the parental BaF/3 control cell line were grown to a density of 1.7×10⁶ to 3.2×10⁶ cells per ml at 37° C., 120 RPM, 5% CO₂, in 1X RPMI 1640 media with 10% FBS, 10 ng/ml IL-3, 5 μg/ml puromycin. Cells were concentrated, mixed with 15 pM or 150 pM antibody in cell culture media and incubated 24 to 48 hours at room temperature while rotating at 20 to 30 RPM. Cells were present at a top concentration of 2×10⁷ cells per ml (parental BaF/3 or cynomolgus LAG3 transfectants) or 1×10⁷ cells per ml (human LAG3 transfectants) and diluted in a 2-fold, 18 member series. The cells were pelleted and free antibody in the supernatant was measured using a KinExA 3200 instrument (Sapidyne, Id., USA). […] Antibody on the beads was labeled with 1.5 μg/ml Alexa Fluor® 647 conjugated goat anti-human (Fab′)₂ (Jackson ImmunoResearch Laboratories), washed and the fluorescent signal was read all using the KinExA™ 3200. The data from the 15 pM and 150 pM concentrations of each antibody were fit simultaneously using KinExA™ Pro n-Curve Analysis software version 4.0.11 (Sapidyne).

B1: Ab6: humanized light chain 45AGX Humanized x[LAG3_H] mAb (LB145.22D2.E1.D1 (VL3)) Kappa (PX) and humanized heavy chain 73AHD Humanized x[LAG3_H] mAb … (antibody)
heavy: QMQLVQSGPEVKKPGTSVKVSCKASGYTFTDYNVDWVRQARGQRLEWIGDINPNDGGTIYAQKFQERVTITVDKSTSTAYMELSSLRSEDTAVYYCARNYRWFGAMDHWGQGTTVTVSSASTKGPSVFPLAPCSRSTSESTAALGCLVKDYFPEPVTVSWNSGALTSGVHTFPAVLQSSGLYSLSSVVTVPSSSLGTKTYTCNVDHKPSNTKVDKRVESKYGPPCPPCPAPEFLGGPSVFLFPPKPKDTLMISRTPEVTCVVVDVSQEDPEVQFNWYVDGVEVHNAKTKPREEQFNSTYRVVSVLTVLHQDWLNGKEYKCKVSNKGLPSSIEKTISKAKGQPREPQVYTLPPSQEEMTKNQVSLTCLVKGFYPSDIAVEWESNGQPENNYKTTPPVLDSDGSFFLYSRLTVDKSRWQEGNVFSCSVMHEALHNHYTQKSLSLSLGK
light: DIVMTQTPLSLSVTPGQPASISCKASQSLDYEGDSDMNWYLQKPGQPPQLLIYGASNLESGVPDRFSGSGSGTDFTLKISRVEAEDVGVYYCQQSTEDPRTFGGGTKVEIKRTVAAPSVFIFPPSDEQLKSGTASVVCLLNNFYPREAKVQWKVDNALQSGNSQESVTEQDSKDSTYSLSSTLTLSKADYEKHKVYACEVTHQGLSSPVTKSFNRGEC
notes: Humanized 22D2 N55D, IgG4 S228P/kappa; also called Hu22D2 VH6/VL3 N55D (Ab 6); hu22D2 VH6/VL3 N55D
As to B1, the concentration for a half-maximal effect (EC50) in test [1] turned out to be 0.033 nM; in test [2] it was 0.039 nM. The IC50 in test [3] stood at 2.4 nM. Also, the binding result in the test with human CD4 was “no binding”. In test [4], the dissociation constant Kd was 2 pM.

B2: Ab8: humanized light chain 45AGX Humanized x[LAG3_H] mAb (LB145.22D2.E1.D1 (VL3)) Kappa (PX) and humanized heavy chain 80AHG Humanized x[LAG3_H] mAb … (antibody)
heavy: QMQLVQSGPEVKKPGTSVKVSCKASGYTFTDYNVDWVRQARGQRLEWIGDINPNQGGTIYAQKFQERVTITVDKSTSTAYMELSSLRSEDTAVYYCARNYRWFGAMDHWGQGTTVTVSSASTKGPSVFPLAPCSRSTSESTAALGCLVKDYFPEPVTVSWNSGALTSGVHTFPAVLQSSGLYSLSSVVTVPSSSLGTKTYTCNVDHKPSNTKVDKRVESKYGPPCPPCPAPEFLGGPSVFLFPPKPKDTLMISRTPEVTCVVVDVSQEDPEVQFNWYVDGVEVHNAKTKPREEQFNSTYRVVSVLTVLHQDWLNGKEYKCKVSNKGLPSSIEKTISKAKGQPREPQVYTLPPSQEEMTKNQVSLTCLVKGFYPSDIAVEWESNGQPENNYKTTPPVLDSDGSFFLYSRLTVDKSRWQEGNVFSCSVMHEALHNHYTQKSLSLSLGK
light: B1 light
notes: Humanized 22D2 N55Q, IgG4 S228P/kappa; also called Hu22D2 VH6/VL3 N55Q (Ab 8); hu22D2 VH6/VL3 N55Q
As to B2, the 50% effective concentration (EC50) was determined as 0.035 nM in test [1] and 0.041 nM in test [2]. Moreover, in test [3], the half-maximal inhibitory concentration (IC50) worked out at 2.5 nM. The molecule also gave a Kd in test [5] of 0.011 nM.

B3: Ab7: humanized light chain 45AGX Humanized x[LAG3_H] mAb (LB145.22D2.E1.D1 (VL3)) Kappa (PX) and humanized heavy chain 21AHG Humanized x[LAG3_H] mAb … (antibody)
heavy: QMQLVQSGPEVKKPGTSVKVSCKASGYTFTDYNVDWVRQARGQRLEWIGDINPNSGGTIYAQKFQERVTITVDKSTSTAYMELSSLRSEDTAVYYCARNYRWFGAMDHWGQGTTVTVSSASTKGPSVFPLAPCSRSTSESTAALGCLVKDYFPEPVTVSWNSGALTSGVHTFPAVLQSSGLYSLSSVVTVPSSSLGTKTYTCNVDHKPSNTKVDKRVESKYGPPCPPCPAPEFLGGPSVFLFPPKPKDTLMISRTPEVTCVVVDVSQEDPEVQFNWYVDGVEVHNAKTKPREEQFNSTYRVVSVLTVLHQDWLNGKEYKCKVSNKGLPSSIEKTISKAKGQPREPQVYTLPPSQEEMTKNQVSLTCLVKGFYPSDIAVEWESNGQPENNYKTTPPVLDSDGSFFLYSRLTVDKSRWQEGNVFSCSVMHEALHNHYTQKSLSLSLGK
light: B1 light
notes: Humanized 22D2 N55S, IgG4 S228P/kappa; also called Hu22D2 VH6/VL3 N55S (Ab 7); hu22D2 VH6/VL3 N55S
Turning to B3, the EC50 in test [1] was determined as 0.049 nM; in test [2], 0.057 nM. For the same molecule, in test [3], the IC50 was 2.1 nM. The molecule also displayed a Kd in test [5] of 0.01 nM.
